Measurements reported in publication doi:10.1101/2023.03.09.531992 (bioRxiv, 2023).

T1: S. pombe αWD40 domain (N-terminal WD40 domain of α-COPI), wild type (S. pombe, UniProt Q96WV5 1-327)
T1 sequence: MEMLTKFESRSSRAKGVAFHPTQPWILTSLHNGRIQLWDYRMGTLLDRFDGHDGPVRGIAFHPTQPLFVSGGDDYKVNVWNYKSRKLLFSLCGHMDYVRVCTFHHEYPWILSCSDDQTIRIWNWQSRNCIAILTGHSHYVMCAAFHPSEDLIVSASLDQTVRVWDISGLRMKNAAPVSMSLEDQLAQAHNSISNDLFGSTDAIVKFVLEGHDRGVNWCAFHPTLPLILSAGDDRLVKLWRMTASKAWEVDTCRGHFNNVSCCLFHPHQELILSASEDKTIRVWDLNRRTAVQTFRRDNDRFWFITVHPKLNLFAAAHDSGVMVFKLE

T2: S. cerevisiae β’WD40 domain (N-terminal WD40 domain of β’-COPI), wild type (S. cerevisiae, UniProt P41811 1-300)
T2 sequence: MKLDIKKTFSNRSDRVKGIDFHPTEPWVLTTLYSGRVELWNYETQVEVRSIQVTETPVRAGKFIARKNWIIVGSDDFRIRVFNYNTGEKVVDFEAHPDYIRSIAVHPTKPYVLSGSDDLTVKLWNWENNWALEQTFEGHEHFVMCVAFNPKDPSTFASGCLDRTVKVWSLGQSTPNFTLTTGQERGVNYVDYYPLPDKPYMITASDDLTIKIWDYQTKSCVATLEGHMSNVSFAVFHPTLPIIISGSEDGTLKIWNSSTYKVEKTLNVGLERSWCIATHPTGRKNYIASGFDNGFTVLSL

B1: 15N-labeled wild-type SARS-CoV-2 S C-terminal tail 21-mer peptide (NMR) (peptide)
peptide: not shown
modifications: 15N isotope label

Legend:
[1] = target: T1, S. pombe αWD40 domain (N-terminal WD40 …); assay: NMR titration
[2] = target: T2, S. cerevisiae β’WD40 domain (N-terminal …); assay: crystal structure

Binder | binding result [1] | binding result [2]
B1 | binds | 
GVKLHYT [wild-type SARS-CoV-2 S tail heptapeptide (residues 1267-1273), as co-crystallised] |  | binds
